# Measurements from patent US20240116985A1 (published 2024).
# Starred links: 1 amine or outer side, 2 acyl side, 3 side chain; linkers in the order of their positions; H or OH if unused. Positions of bridges follow the written chain, without caps; N, C: chain ends. Non-standard residues stand in square brackets, D forms with d. Primed or numbered codes have the meaning given here. B5(15) = 2-amino-2-(pent-4-en-1-yl)hept-6-enoic acid (2,2-bis(4-pentenyl)glycine), stitching residue bearing two staples, C=CCCCC(CCCC=C)(N[*:1])C(=O)[*:2]; PyrS2″ = (S)-3-amino-1-((pent-4-en-1-yloxy)carbonyl)pyrrolidine-3-carboxylic acid (stapling residue), C=CCCCOC(=O)N1CC[C@@](N[*:1])(C(=O)[*:2])C1; B5(16) = 2-amino-2-(pent-4-en-1-yl)hept-6-enoic acid = 2,2-bis(4-pentenyl)glycine (stitching residue), C=CCCCC(CCCC=C)(N[*:1])C(=O)[*:2]; B5(4) = 2,2-bis(4-pentenyl)glycine = 2-amino-2-(pent-4-en-1-yl)hept-6-enoic acid (stitching residue), C=CCCCC(CCCC=C)(N[*:1])C(=O)[*:2]; B5(5) = 2,2-bis(4-pentenyl)glycine, 2-amino-2-(pent-4-en-1-yl)hept-6-enoic acid (stitching residue), C=CCCCC(CCCC=C)(N[*:1])C(=O)[*:2]; PyrS2 = (S)-3-amino-1-((pent-4-en-1-yloxy)carbonyl)pyrrolidine-3-carboxylic acid, C=CCCCOC(=O)N1CC[C@@](N[*:1])(C(=O)[*:2])C1; B5(3) = 2,2-bis(4-pentenyl)glycine (stitching residue), C=CCCCC(CCCC=C)(N[*:1])C(=O)[*:2]; B5 = 2-amino-2-(pent-4-en-1-yl)hept-6-enoic acid, C=CCCCC(CCCC=C)(N[*:1])C(=O)[*:2]; Phe(2-Cl) = N[C@@H](Cc1ccccc1Cl)C(=O)O; Bta = N[C@@H](Cc1csc2ccccc12)C(=O)O; αAllylPro = C=CC[C@@]1(C(=O)O)CCCN1; tBuAla = CC(C)(C)C[C@H](N)C(=O)O; 3Thi = N[C@@H](Cc1ccsc1)C(=O)O; S8 = C=CCCCCCC[C@](C)(N)C(=O)O; hSer = N[C@@H](CCO)C(=O)O
# B1: I-1527: Ac-PL3-Asp-Ser-B5-Asp-Glu-Ala-Ala-Phe-Gln-S8-Phe-BztA-Gln-NH2 (peptide)
# peptide: Ac-[αAllylPro]DS[B5(5)]DEAAFQ[S8]F[Bta]Q-NH2
# modifications: staple 1-4, 4-11
# notes: Stapled peptide composition; It has the same description as I-1526 and is the staple isomer composition of the later eluting HPLC peak
# B2: I-1526: Ac-PL3-Asp-Ser-B5-Asp-Glu-Ala-Ala-Phe-Gln-S8-Phe-BztA-Gln-NH2 (peptide)
# peptide: Ac-[αAllylPro]DS[B5(5)]DEAAFQ[S8]F[Bta]Q-NH2
# modifications: staple 1-4, 4-11; also: staple isomer, earlier eluting HPLC peak
# notes: Stapled peptide composition; It has the same description as I-1527 and is the staple isomer composition of the earlier eluting HPLC peak
# B3: I-1530: Ac-PL3-Asp-Ser-B5-Asp-Glu-Ala-Ala-Phe-Hse-S8-Phe-BztA-Gln-NH2 (peptide)
# peptide: Ac-[αAllylPro]DS[B5(15)]DEAAF[hSer][S8]F[Bta]Q-NH2
# modifications: staple 1-4, 4-11; not fully specified; printed as Ac-PL3-Asp-Ser-B5-Asp-Glu-Ala-Ala-Phe-Hse-S8-Phe-BztA-Gln-NH2
# notes: Stapled peptide composition; It has the same description as I-1529 and is the staple isomer composition of the later eluting HPLC peak
# B4: I-1529: Ac-PL3-Asp-Ser-B5-Asp-Glu-Ala-Ala-Phe-Hse-S8-Phe-BztA-Gln-NH2 (peptide)
# peptide: Ac-[αAllylPro]DS[B5(15)]DEAAF[hSer][S8]F[Bta]Q-NH2
# modifications: staple 1-4, 4-11; not fully specified; printed as Ac-PL3-Asp-Ser-B5-Asp-Glu-Ala-Ala-Phe-Hse-S8-Phe-BztA-Gln-NH2
# notes: Stapled peptide composition
# B5: I-1531: Ac-PL3-Asp-Asn-B5-Asp-Glu-Ala-Ala-Phe-Gln-S8-Phe-BztA-Gln-NH2 (peptide)
# peptide: XDNXDEAAFQXFXQ
# modifications: not fully specified; N-terminal Ac; C-terminal NH2; PL3 at 1, B5 at 4 and S8 at 11 stapled by olefin metathesis (PL3-B5 and B5-S8); BztA at 13
# notes: Stapled peptide composition; It has the same description as I-1532 and is the staple isomer composition of the earlier eluting HPLC peak
# B6: I-1528: Ac-PL3-Asp-Ser-B5-Asp-Glu-Ala-Ala-Phe-Leu-S8-Phe-BztA-Gln-NH2 (peptide)
# peptide: Ac-[αAllylPro]DS[B5(5)]DEAAFL[S8]F[Bta]Q-NH2
# modifications: staple 1-4, 4-11
# notes: Stapled peptide composition; Staple olefins are retained
# B7: I-1041 (peptide)
# peptide: Ac-[αAllylPro]DF[B5(16)]DDAAFN[PyrS2″][Phe(2-Cl)][Bta]Q-NH2
# modifications: staple 1-4, 4-11
# notes: also called Ac-PL3-Asp-Phe-B5-Asp-Asp-Ala-Ala-Phe-Asn-PyrS2-2C1F-BztA-Gln-NH2
# B8: I-1045 (peptide)
# peptide: Ac-[αAllylPro]DF[B5(16)]DDAAFS[PyrS2″][Phe(2-Cl)][Bta]Q-NH2
# modifications: staple 1-4, 4-11
# notes: also called Ac-PL3-Asp-Phe-B5-Asp-Asp-Ala-Ala-Phe-Ser-PyrS2-2C1F-BztA-Gln-NH2
# B9: I-1051 (peptide)
# peptide: Ac-[αAllylPro]DF[B5(4)]DDAAFS[PyrS2][Phe(2-Cl)][Bta]S-NH2
# modifications: staple 1-4, 4-11
# notes: also called Ac-PL3-Asp-Phe-B5-Asp-Asp-Ala-Ala-Phe-Ser-PyrS2-2C1F-BztA-Ser-NH2
# B10: I-1043 (peptide)
# peptide: Ac-[αAllylPro]DF[B5(16)]DDAAFT[PyrS2″][Phe(2-Cl)][Bta]Q-NH2
# modifications: staple 1-4, 4-11
# notes: also called Ac-PL3-Asp-Phe-B5-Asp-Asp-Ala-Ala-Phe-Thr-PyrS2-2C1F-BztA-Gln-NH2
# Biological target: T1, B-cat-Halo (beta-catenin HaloTag NanoBRET construct expressed in HEK293 cells) (UniProt P35222 1-781, HaloTag NanoBRET 618 Ligand bound to the HaloTag)
# T1 sequence (looked up): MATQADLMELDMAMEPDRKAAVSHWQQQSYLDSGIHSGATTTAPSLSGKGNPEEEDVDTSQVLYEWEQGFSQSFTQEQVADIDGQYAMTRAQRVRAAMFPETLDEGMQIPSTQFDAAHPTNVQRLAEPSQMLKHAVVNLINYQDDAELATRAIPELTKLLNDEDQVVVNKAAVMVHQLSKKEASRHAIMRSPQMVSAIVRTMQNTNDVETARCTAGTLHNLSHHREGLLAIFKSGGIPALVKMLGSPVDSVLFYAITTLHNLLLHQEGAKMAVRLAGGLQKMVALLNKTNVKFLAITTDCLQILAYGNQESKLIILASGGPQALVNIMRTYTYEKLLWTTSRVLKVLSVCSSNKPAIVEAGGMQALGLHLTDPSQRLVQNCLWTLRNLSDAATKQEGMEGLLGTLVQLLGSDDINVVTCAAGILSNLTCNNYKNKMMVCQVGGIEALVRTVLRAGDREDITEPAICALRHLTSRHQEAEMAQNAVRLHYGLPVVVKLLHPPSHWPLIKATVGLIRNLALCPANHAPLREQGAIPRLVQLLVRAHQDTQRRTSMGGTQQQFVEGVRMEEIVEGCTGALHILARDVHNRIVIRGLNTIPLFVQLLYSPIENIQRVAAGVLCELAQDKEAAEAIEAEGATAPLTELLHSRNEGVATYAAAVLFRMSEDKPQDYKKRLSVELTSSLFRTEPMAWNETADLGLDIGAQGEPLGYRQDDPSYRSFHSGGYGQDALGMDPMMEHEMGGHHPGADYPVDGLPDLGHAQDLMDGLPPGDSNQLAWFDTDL
# Experiment: cell-based or functional assay
row,Binder,NanoBRET Abs IC50 [µM]
1,B1,30.3
2,B2,> 20
3,B3,36.9
4,B4,> 20
5,B5,> 20
6,B6,31.4

# Biological target: T2, B-cat-Halo (beta-catenin HaloTag construct expressed in HEK293 cells) (UniProt P35222 1-781)
# T2 sequence (looked up): T1 sequence (looked up)
# Experiment: cell-based or functional assay
row,Binder,NanoBRET Abs IC50 [µM]
1,"Ac-[αAllylPro]D[tBuAla][B5(3)]DDAAF[hSer][PyrS2″][3Thi][Bta]Q-NH2 (staple 1-4, 4-11) [I-803]",9.6
2,"Ac-[αAllylPro]D[tBuAla][B5(3)]DDAAFT[PyrS2″][3Thi][Bta]Q-NH2 (staple 1-4, 4-11) [I-809]",6.1
3,"Ac-[αAllylPro]D[tBuAla][B5]DDAAFL[PyrS2][3Thi][Bta]Q-NH2 (staple 1-4, 4-11) [I-801]",5.8

# Biological target: T3, beta-catenin in DLD1 TCF/LEF luciferase reporter cells (UniProt P35222 1-781)
# T3 sequence (looked up): T1 sequence (looked up)
# Experiment: cell-based or functional assay
row,Binder,DLD1 4% Abs IC50 [µM]
1,"Ac-[αAllylPro]D[tBuAla][B5(3)]DDAAF[hSer][PyrS2″][3Thi][Bta]Q-NH2 (staple 1-4, 4-11) [I-803]",9
2,"Ac-[αAllylPro]D[tBuAla][B5(3)]DDAAFT[PyrS2″][3Thi][Bta]Q-NH2 (staple 1-4, 4-11) [I-809]",11.3
3,"Ac-[αAllylPro]D[tBuAla][B5]DDAAFL[PyrS2][3Thi][Bta]Q-NH2 (staple 1-4, 4-11) [I-801]",4.3

# Biological target: T4, B-cat-Halo (UniProt P35222 1-781)
# T4 sequence (looked up): T1 sequence (looked up)
# Experiment: cell-based or functional assay
row,Binder,NanoBRET Abs IC50 [µM]
1,B7,> 20
2,B8,23.9
3,B9,> 20
4,B10,> 20

# Biological target: T5, full-length beta-Catenin (Uniprot ID P35222) (Homo sapiens (Human), UniProt P35222 1-781)
# T5 construct: Tags are not described; Also used here as the target of the DLD1 TCF reporter read-out (endogenous beta-catenin in DLD1 cells); also called bCat; B-Catenin
# T5 sequence: T1 sequence (looked up)
# Experiment: fluorescence polarization competition; full-length beta-catenin with 5FAM-TCF4(10-53) probe, peptide titrated
# Protocol: (§1) The plate was incubated protected from light for 60 minutes at 20° C. prior to read. Reads were performed on a CLARIOstar plate reader (BMG Labtech) in duplicate, and data were fitted to a 1:1 binding model with hill slope using an in-house script. All provided concentrations are final concentrations.
row,Binder,IC50 [µM]
1,B7,0.008
2,B8,0.005
3,B9,0.014
4,B10,0.012

# Biological target: T6, full-length beta-Catenin (Uniprot ID P35222) (Homo sapiens (Human), UniProt P35222 1-781)
# T6 construct: Any tags on the recombinant protein are not described for the FP assay; also called bCat; B-Catenin
# T6 sequence: T1 sequence (looked up)
# Experiment: fluorescence polarization competition; displacement of 5FAM-TCF4(10-53) from full-length beta-catenin
# Protocol: as §1
row,Binder,IC50 [µM]
1,B1,0.036
2,B2,0.084
3,B3,0.061
4,B4,0.126
5,B5,0.084
6,B6,0.102
